Results on 9 molecules are retold here after PMC4660213, “Identification and characterization of multiple rubisco activases in chemoautotrophic bacteria” (Nature Communications, 2015).

B2: Acidithiobacillus ferrooxidans CbbQ1 (natural protein, UniProt B7JA26 1-267, looked up)
chain: MNDQLTEYRIKKAPYYRATGDETELYEAAYSVRMPMMLKGPTGCGKTRFVEYMAYKLGKPLITVACNEDMTASDLVGRFLLDPQGTRWQDGPLTLAARLGAICYLDEVVEARQDTTVVIHPLTDNRRVLPLEKKGELVQAHPDFQLVISYNPGYQSLMKDLKQSTKQRFGALDFNYPDHEIEAEIVSHETGVNKEVADKLVSIAERARNLKGHGLDEGISTRMLVYAGSLINKGVEAKAACRVTLVRPITDDPDMRDALDAAVTTYF
notes: MoxR-type AAA+ protein CbbQ1 of Acidithiobacillus ferrooxidans ATCC 23270, locus AFE_3053; native N terminus after cleavage of His6-ubiquitin; six copies in the Q1O1 complex; alone it eluted in the void volume (likely soluble aggregates); also called AfQ1; AfCbbQ1; source: E. coli, co-expressed with CbbO1, co-purified (Ni-NTA, ubiquitin cleaved, MonoQ, Superdex 200); not shown: His6, N-terminal, …
B3: Acidithiobacillus ferrooxidans CbbQ2 (natural protein, UniProt B7J5E4 1-272, looked up)
chain: MTATDSSILNQYLVGKEPFYQPQHDEVALFEAAYRKRLPVMVKGPTGCGKSRFVEFMAWRLGKPLVTVACNEDMTAADLVGRWLLDKDGTRWQDGPLTVAARYGAICYLDEIVEARQDTTVVIHPLTDHRRTLPLDKKGELIRAHPDFQLVISYNPGYQSLMKDLKQSTKQRFTGFEFDYPNAELEAGILVQETGVAPSIAAQLVTVAATARRLKGHGLDEGISTRLLVYAAMLMDDGVAPRAACRMALVQPITDDADIRATLEHAIDMTFA
notes: MoxR-type AAA+ protein CbbQ2 of Acidithiobacillus ferrooxidans ATCC 23270, locus AFE_2156; native N terminus after cleavage of His6-ubiquitin; also called AfQ2; AfCbbQ2; not shown: His6, N-terminal, cleaved; ubiquitin, N-terminal, cleaved
B6: Rhodobacter sphaeroides form I rubisco large subunit (natural protein, UniProt P27997 1-486, looked up)
chain: MDTKTTEIKGKERYKAGVLKYAQMGYWDGDYVPKDTDVLALFRITPQEGVDPVEAAAAVAGESSTATWTVVWTDRLTACDSYRAKAYRVEPVPGTPGQYFCYVAYDLILFEEGSIANLTASIIGNVFSFKPLKAARLEDMRFPVAYVKTYKGPPTGIVGERERLDKFGKPLLGATTKPKLGLSGKNYGRVVYEGLKGGLDFMKDDENINSQPFMHWRDRFLYVMEAVNLASAQTGEVKGHYLNITAGTMEEMYRRAEFAKSLGSVIVMVDLIIGYTAIQSISEWCRQNDMILHMHRAGHGTYTRQKNHGISFRVIAKWLRLAGVDHLHCGTAVGKLEGDPLTVQGYYNVCREPFNTVDLPRGIFFEQDWADLRKVMPVASGGIHAGQMHQLLSLFGDDVVLQFGGGTIGHPMGIQAGATANRVALEAMVLARNEGRNIDVEGPEILRAAAKWCKPLEAALDTWGNITFNYTSTDTSDFVPTASVAM
notes: form I rubisco large subunit of Rhodobacter sphaeroides; also called large subunit of RsLS

Series [1] deals with the molecule itself. Kind of series: SEC + other: glycerol gradient sedimentation; combined Stokes radius/sedimentation analysis: Stokes radius from gel filtration, Svedberg coefficient from 5–30% glycerol gradients in buffer A (1 mg/ml, 35,000 r.p.m., 16 h, 4 °C); M=4,205 (SRs).
In series [2] the target is B2. Described as above. The note with it: both partners purified.
The target of series [3] is B2. Kind of series: quantitative densitometry of SDS-PAGE; Coomassie-stained SDS–PAGE of the purified complexes (4 µg per lane), assuming equal binding of the dye. As to conditions: both partners purified.
In series [4] the target is B3. Kind of series: SEC + other: glycerol gradient sedimentation; combined Stokes radius/sedimentation analysis: Stokes radius from gel filtration, Svedberg coefficient from 5–30% glycerol gradients in buffer A (1 mg/ml, 35,000 r.p.m., 16 h, 4 °C); M=4,205 (SRs). The note with it: both partners purified. (Size exclusion chromatography separates by hydrodynamic size, large species first.)

Series [5] has as its target B3. Put plainly: quantitative densitometry of SDS-PAGE; Coomassie-stained SDS–PAGE of the purified complexes (4 µg per lane), assuming equal binding of the dye. The note with it: both partners purified.
The target of series [6] is B6. Kind of series: SEC + other: glycerol gradient sedimentation; combined Stokes radius/sedimentation analysis: Stokes radius from gel filtration, Svedberg coefficient from 5–30% glycerol gradients in buffer A (1 mg/ml, 35,000 r.p.m., 16 h, 4 °C); M=4,205 (SRs). As to conditions: both partners purified.

B1: Rhodopseudomonas palustris form II rubisco (enzyme, UniProt Q6N0W9 1-461, looked up)
chain: MDQSNRYANLNLKESELIAGGRHVLCAYIMKPKAGFGNFIQTAAHFAAESSTGTNVEVSTTDDFTRGVDALVYEVDEANSLMKIAYPIELFDRNVIDGRAMIASFLTLTIGNNQGMGDVEYAKMYDFYVPPAYLKLFDGPSTTIKDLWRVLGRPVINGGFIVGTIIKPKLGLRPQPFANACYDFWLGGDFIKNDEPQGNQVFAPFKDTVRAVADAMRRAQDKTGEAKLFSFNITADDHYEMLARGEFILETFADNADHIAFLVDGYVAGPAAVTTARRAFPKQYLHYHRAGHGAVTSPQSKRGYTAFVLSKMARLQGASGIHTGTMGFGKMEGEAADRAIAYMITEDAADGPYFHQEWLGMNPTTPIISGGMNALRMPGFFDNLGHSNLIMTAGGGAFGHVDGGAAGAKSLRQAEQCWKQGADPVEFAKDHREFARAFESFPQDADKLYPNWRAKLKPQAA
notes: form II rubisco (CbbM) of Rhodopseudomonas palustris; gene synthesized by Genscript, cloned in pHue; also called RpM; source: E. coli BL21 (DE3), purified (Ni-NTA, ubiquitin cleaved, Mono Q, Superdex 200); not shown: His6, N-terminal, cleaved; ubiquitin, N-terminal, cleaved
Take B1: the stoichiometry N – broadly, a count of units in the complex or per binding partner – in series [1] was determined as 6 subunits in the oligomer. Turning to B2, the “stoichiometry N” value in series [1] is 6 CbbQ subunits in the complex.

In the case of B3, in series [1], the “stoichiometry N” value amounted to 6 subunits in the oligomer.

B4: Acidithiobacillus ferrooxidans CbbO1 (natural protein, UniProt B7JA27 1-772, looked up)
chain: MKHLEDYAELLQAFGEGSQAILQSKWQEATRVFSPSGLDQYLDGAMGLRSLGKGDGLVSSYLDAAPHIAREVGEDAVWELVGAVMKMASKTSGAVLEAVVSTSPTAANRLADPELFKSYLGMLDRLLAQVPRALRPMLENIDQLFGYLTLGGLRRWALWGAHAHRTDFEAQIAYFSLKSPEALAMLQQERKGTLFVDIQRRLRMYLRALWGRDFFLRPTSGDFEDREGYRPYIEGIFIHLPDAYDDWEDIDGMTRYRAVAVHAAAHVAYMRKAISAEALTPEQMAVIGLFEDARVEALAMRAFPGIRAIWLPFHTAVAGPVASMGHLFSRLARAIIDPDYVDDNAWVQEGRRVFMEAEARWDDPQLSWDLGVHLADRLRNQRVSYHARTDIPDILYRDDNRYIWEFEEIDWEHETTILPGAQVRKYVNVMEMVNEVDTELAGDDAQEVWVLQSELFPYEDMGLSYNQMEGKEPVSDPFHYPEWDYQIQASRPLWATVLERRPRLGDARVVREVLEKYKPVSSRLRYLIEALQPQGVQRLRKQEDGDEIDVEAAVRALVDIRMGLAPDTRIHMRSLRKVRDLGVLVLMDLSESTNDKVRGSEDSILQLTRDATSLLADAMNRIGDPFAIHGFHSDGRHDVAYYRFKDFDEAYSEEAMGRIAGMTGKFSTRMGAALRHAGHHLRHQRQSRKLLLVITDGEPADIDVRDPQYLRHDARRAVEDLGRDGVITYCLSLDPHADEYVSRIFGARNYQVIDHVERLPERLPILYAGLTR
notes: VWA-domain protein CbbO1 of Acidithiobacillus ferrooxidans ATCC 23270, locus AFE_3054; insoluble unless co-expressed with CbbQ1; also called AfCbbO1; source: E. coli, co-expressed with CbbQ1, co-purified (Ni-NTA, ubiquitin cleaved, MonoQ, Superdex 200); not shown: His6, N-terminal, cleaved; ubiquitin, N-terminal, cleaved
With B4, the “stoichiometry N” value in series [2] is 1 CbbO subunit per CbbQ hexamer; in series [3], 1 CbbO subunit per 6 CbbQ subunits.

B5: Acidithiobacillus ferrooxidans CbbO2 (natural protein, UniProt B7J5E5 1-759, looked up)
chain: MTDHPRDASLPSRLAAYRKQLDCRFPRVGEVFSDCIAKASARLGPAGVSAYVDAARALCKLGRGEEPVLIFLEEWPDVGAALGDGTLEMVMQMVQFMQRTPNGNAIGGFLQSLAPVSRALLSREQLGHYLNTLRDMMERTTGSIHGHHQTHPSPGLPELLRQAPTLLQSLTVDGLRNWVDYGVRNYLHHPERQKDFFSLQSADSRAVLQRERHGTLLADVERKLDLYLRGLWQDSEVLVPYSTAFATLRTPQPYYDALGMRLPDVLDDLPGIGALDHYRAILAHMVGHRRWSTPQIADNWSPFQRLAVEFFEDARIDTLLIRTYPGLRTLFLALHPKPGEDACDPETTSCLRHRLAMLSRALLDPEHGYRNPVLHDFVDRFHGELAGGNADTATMARLALDYVTTTRRQSDQFAKVHFADTEISYRDDNRGLWRFIESGDEEEAFDAEQRKAPDLETQGLPPRHYPEWDYQSQSYRPDWVSLYEGLHASAPAATIDQLLLKHAALAKHLKRLLDLLKPQDKVRIRYQEEGSELDLDVALRSWIDFKSGSTPDPRINMSHRTAGRDIAVTLLLDLSESLNESVKTGGGDGQTVLQLSQEAVSLLAWSIEQLGDPLAIAGFNSNTRHEVRYQHIKGFSEPWGDVVKGRLAALQAGYSTRMGAAMRHAGHYLATRKADKKLMLVLTDGRPSDVDVQDDRLLIEDARQAVNELDRDGIFTYCISLDPHADAYVADIFGRQYTVIDHIARLPEKLPELFIALTR
notes: VWA-domain protein CbbO2 of Acidithiobacillus ferrooxidans ATCC 23270, locus AFE_2157; insoluble unless co-expressed with CbbQ2; also called AfCbbO2; source: E. coli, co-expressed with CbbQ2, co-purified (Ni-NTA, ubiquitin cleaved, MonoQ, Superdex 200; 5 mM MgCl2 and 5% glycerol in buffers); not shown: His6, N-terminal, cleaved; ubiquitin, N-terminal, cleaved
Take B5: the “stoichiometry N” value was 1 CbbO subunit per CbbQ hexamer in series [4] and 1 CbbO subunit per 6 CbbQ subunits in series [5]. On to B6, for which the “stoichiometry N” value in series [1] is 8 large subunits in the complex.

B7: Acidithiobacillus ferrooxidans form I rubisco large subunit (natural protein, UniProt B7JA24 1-473, looked up)
chain: MAVKTYNAGVKDYRNTYWEPDYSVKDTDILAVFKITPQAGVDREEAAAAVAAESSTGTWTTVWTDLLTDLDYYKGRAYRIEDVPGDDTCFYAFIAYPIDLFEEGSVVNVFTSLVGNVFGFKAVRALRLEDVRFPIAYVKTCGGPPHGIQVERDIMNKYGRPLLGCTIKPKLGLSAKNYGRACYEGLRGGLDFTKDDENVNSQPFMRWRQRFDFVMEAIQKAEAETGERKGHYLNVTAPTPEEMYKRAEYAKEIGAPIIMHDYITGGFCANTGLANWCRDNGMLLHIHRAMHAVLDRNPHHGIHFRVLTKILRLSGGDHLHSGTVVGKLEGDREATLGWIDIMRDRFIKEDRSRGIFFDQDWGSMPGVMPVASGGIHVWHMPALVTIFGDDSVLQFGGGTLGHPWGNAAGAAANRVALEACVEARNRGVAIEKEGKAVLTEAAKHSPELKIAMETWKEIKFEFDTVDKLDVAHK
notes: form I rubisco large subunit (CbbL) of Acidithiobacillus ferrooxidans ATCC 23270, locus AFE_3051; gene amplified from genomic DNA; cbbL and cbbS were amplified together and cloned between NdeI and HindIII of pET30b; no tag is mentioned; also called AfL; CbbL; source: E. coli BL21, co-expressed with the small subunit from pET30bAfcbbLS, purified (Source30Q, Superdex 200)
Regarding B7, the “stoichiometry N” value in series [1] was 8 large subunits in the complex.

B8: Rhodobacter sphaeroides form I rubisco small subunit (natural protein, UniProt P27998 1-129, looked up)
chain: MRITQGCFSFLPDLTDEQISAQVDYCLGRGWAVSLEHTDDPHPRNTYWEMWGMPMFDLRDPKGVMIELDECRKAWPGRYIRINAFDSTRGFETVTMSFIVNRPEVEPSLRMERTEVDGRSIRYTHSIVR
notes: form I rubisco small subunit of Rhodobacter sphaeroides; also called small subunit of RsLS
For B8, the binding result in series [6] was “binds”.

B9: Acidithiobacillus ferrooxidans form II rubisco (enzyme, UniProt B7J5E3 1-459, looked up)
chain: MDQSNRYADLSLKEEDLISGGKHILVAYKMKPKAGHGYLEAAAHFAAESSTGTNVEVSTTDDFTKGVDALVYHIDEATEDMRIAFPLELFDRNVTDGRMMIVSFLTLVIGNNQGMGDIEHGQMIDFFMPPRAIQLFDGPAKDISDLWRILGRPIKDGGYIAGTIIKPKLGLRPEPFAAAAYQFWLGGDFIKNDEPQGNQVFAPVKKTIPLVYDAMKRAMDETGEAKLFSMNITADDHYEMCARADFALETFGPDADKLAFLVDGFVGGPGMITTARRQYAGQYLHYHRAGHGMITSPSAKRGYTAFVLAKMSRLQGASGIHVGTMGYGKMEGGADDRNIAYMIERDSCDGPVYHQEWYGMKPTTPIISGGMNALRLPGFFENLGHGNVINTAGGGSYGHIDSPAAGAVSLRQAYECWKAGADPIEYAREHKEFARAFESFPGDADKLYPGWREKLGVHR
notes: form II rubisco (CbbM) of Acidithiobacillus ferrooxidans ATCC 23270, locus AFE_2155; native N terminus after cleavage of His6-ubiquitin; used as ECM, ER and ECMC complexes in the enzymatic assays; also called AfM; CbbM; source: E. coli BL21 (DE3), purified (Ni-NTA, ubiquitin cleaved, Mono Q, Superdex 200); not shown: His6, N-terminal, cleaved; ubiquitin, N-terminal, cleaved
In the case of B9, in series [1], the “stoichiometry N” value turned out to be 6 subunits in the oligomer.
